From US20200171163A1 (Daiichi Sankyo, published 2020)
Residue numbers refer to the chain shown, from its start. Values belong to the binder of their own block, whether it stands above or below them.

Key:
[1] = molecular target: T1, cynomolgus monkey CDH6 (on cells) (cynomolgus monkey, UniProt P55285 54-790 (human entry)); experiment: flow cytometry, MFI vs antibody concentration; 293α cells transfected with pcDNA3.1-cynoCDH6; PE anti-human IgG Fcγ
T1 construct: Expressed from pcDNA3.1-cynoCDH6; also called cynoCDH6
T1 sequence: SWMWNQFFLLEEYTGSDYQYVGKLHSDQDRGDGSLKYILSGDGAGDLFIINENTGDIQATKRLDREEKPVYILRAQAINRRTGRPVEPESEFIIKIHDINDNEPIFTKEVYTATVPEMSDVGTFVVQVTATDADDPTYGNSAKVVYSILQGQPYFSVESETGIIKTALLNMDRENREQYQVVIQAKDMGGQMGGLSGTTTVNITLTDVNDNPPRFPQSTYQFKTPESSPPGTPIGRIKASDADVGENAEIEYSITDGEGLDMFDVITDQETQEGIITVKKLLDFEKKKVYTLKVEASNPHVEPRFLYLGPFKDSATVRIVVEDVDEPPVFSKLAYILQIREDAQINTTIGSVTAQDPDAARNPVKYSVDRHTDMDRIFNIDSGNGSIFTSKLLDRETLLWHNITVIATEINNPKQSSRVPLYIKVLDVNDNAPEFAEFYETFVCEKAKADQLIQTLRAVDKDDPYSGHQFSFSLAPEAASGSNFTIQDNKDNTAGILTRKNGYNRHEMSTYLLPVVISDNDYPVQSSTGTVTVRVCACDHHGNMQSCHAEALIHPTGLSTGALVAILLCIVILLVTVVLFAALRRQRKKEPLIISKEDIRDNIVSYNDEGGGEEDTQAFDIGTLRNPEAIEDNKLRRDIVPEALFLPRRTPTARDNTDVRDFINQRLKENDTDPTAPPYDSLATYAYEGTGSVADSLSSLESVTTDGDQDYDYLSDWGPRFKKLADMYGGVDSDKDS
Experimental: (§1) The CDH6-binding activity of the human chimeric anti-CDH6 antibody chG019 purified in 4)-2 was confirmed by flow cytometry. […] The cells were cultured overnight under conditions of 37° C. and 5% CO₂, and thereafter, a cell suspension was prepared. chG019 was added to the suspension of each of these cells. The cells were left standing at 4° C. for 1 hour. Thereafter, the cells were washed twice with PBS supplemented with 5% FBS, and then suspended by the addition of PE-labeled F(ab′)2 Fragment anti-human IgG, Fcγ antibody (Jackson ImmunoResearch Laboratories, Inc.) that had been 500-fold diluted with PBS supplemented with 5% FBS. The cells were left standing at 4° C. for 1 hour. The cells were washed twice with PBS supplemented with 5% FBS, and then re-suspended in PBS supplemented with 5% FBS, followed by detection using a flow cytometer (Canto II; BD Biosciences). The data was analyzed using FlowJo (Tree Star, Inc.). […] In FIG. 5, the abscissa depicts antibody concentration, and the ordinate depicts the amount of the antibody bound, based on mean fluorescence intensity.

[2] = molecular target: T2, human CDH6 (full-length, on cells) (human, UniProt P55285 54-790); experiment: flow cytometry, MFI vs antibody concentration; 293α cells transfected with pcDNA3.1-hCDH6; PE anti-human IgG Fcγ
T2 construct: also called hCDH6; full-length hCDH6
T2 sequence: T1 sequence with H300Y, R457H, G707A
Experimental: as §1

[3] = molecular target: T2, human CDH6 (full-length, on cells); experiment: flow cytometry; 293α cells transfected with full-length hCDH6 (open) vs untransfected control cells (shaded); APC anti-human IgG
Experimental: The cells were cultured overnight under conditions of 37° C. and 5% CO₂, and thereafter, a cell suspension was prepared. […] Thereafter, the cells were suspended by the addition of each of the 4 humanized hG019 antibodies (clone Nos: H01L02, H02L02, H02L03 and H04L02), which had been prepared in Example 5)-5-3, or the anti-CDH6 antibody NOV0712, which had been prepared in Reference Example 1, or human IgG1 (Calbiochem) as a negative control. The cells were left standing at 4° C. for 1 hour. The cells were washed twice with PBS supplemented with 5% FBS, and then suspended by the addition of APC-anti-human IgG goat F(ab′)2 (Jackson ImmunoResearch Laboratories, Inc.) that had been 500-fold diluted with PBS supplemented with 5% FBS. The cells were left standing at 4° C. for 1 hour. The cells were washed twice with PBS supplemented with 5% FBS, followed by detection using a flow cytometer (Canto II; BD Biosciences). The data was analyzed using FlowJo (Tree Star, Inc.). In the histograms of FIGS. 7-1 to 7-6, the abscissa depicts APC fluorescence intensity indicating the amount of the antibody bound, and the ordinate depicts cell count. […] Fluorescence intensity is enhanced when the antibody binds to full-length hCDH6 or each EC domain deletion mutant on cell surface. The human IgG1 control binds to none of the transfected cells.

[4] = molecular target: T3, EC5 deletion mutant of human CDH6 (human, UniProt P55285 54-790); experiment: flow cytometry; 293α cells transfected with EC5-deleted hCDH6 (open) vs untransfected control cells (shaded); APC anti-human IgG
T3 construct: In p3×FLAG-CMV-9; also called EC5-deleted hCDH6
T3 sequence: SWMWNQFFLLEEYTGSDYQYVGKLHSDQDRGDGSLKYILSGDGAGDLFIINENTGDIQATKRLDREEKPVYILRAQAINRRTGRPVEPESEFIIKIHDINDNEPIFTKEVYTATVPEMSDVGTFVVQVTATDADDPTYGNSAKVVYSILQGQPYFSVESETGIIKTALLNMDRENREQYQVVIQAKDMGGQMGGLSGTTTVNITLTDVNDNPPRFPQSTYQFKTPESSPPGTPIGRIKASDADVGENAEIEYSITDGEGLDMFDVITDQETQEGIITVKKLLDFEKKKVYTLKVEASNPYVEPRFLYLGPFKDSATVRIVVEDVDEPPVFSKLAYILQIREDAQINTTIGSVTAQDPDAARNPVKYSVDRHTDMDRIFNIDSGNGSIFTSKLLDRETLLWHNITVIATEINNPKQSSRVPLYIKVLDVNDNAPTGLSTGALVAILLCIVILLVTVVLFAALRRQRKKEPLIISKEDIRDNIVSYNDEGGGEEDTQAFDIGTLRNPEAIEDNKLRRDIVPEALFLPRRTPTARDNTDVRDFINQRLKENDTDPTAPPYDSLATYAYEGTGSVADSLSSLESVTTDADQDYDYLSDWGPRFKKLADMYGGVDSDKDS
Experimental: Thereafter, the cells were suspended by the addition of each of the 4 humanized hG019 antibodies (clone Nos: H01L02, H02L02, H02L03 and H04L02), which had been prepared in Example 5)-5-3, or the anti-CDH6 antibody NOV0712, which had been prepared in Reference Example 1, or human IgG1 (Calbiochem) as a negative control. The cells were left standing at 4° C. for 1 hour. The cells were washed twice with PBS supplemented with 5% FBS, and then suspended by the addition of APC-anti-human IgG goat F(ab′)2 (Jackson ImmunoResearch Laboratories, Inc.) that had been 500-fold diluted with PBS supplemented with 5% FBS. The cells were left standing at 4° C. for 1 hour. The cells were washed twice with PBS supplemented with 5% FBS, followed by detection using a flow cytometer (Canto II; BD Biosciences). The data was analyzed using FlowJo (Tree Star, Inc.). In the histograms of FIGS. 7-1 to 7-6, the abscissa depicts APC fluorescence intensity indicating the amount of the antibody bound, and the ordinate depicts cell count. […] Fluorescence intensity is enhanced when the antibody binds to full-length hCDH6 or each EC domain deletion mutant on cell surface. The human IgG1 control binds to none of the transfected cells.

- EC50 (read off the curve) [1]: ~0.01 µg/mL
- EC50 (read off the curve) [2]: ~0.01 µg/mL
B1: human chimeric anti-CDH6 antibody chG019 (antibody, human IgG1)
heavy: not shown
light: DIQMTQSPSLLSASVGDRVTLNCKASQNIYKNLAWYQQKLGEGPKLLIYDANTLQTGIPSRFSGSGSGSDFTLTISSLQPEDVATYFCQQYYSGWAFGGVTNLELKRAVAAPSVFIFPPSDEQLKSGTASVVCLLNNFYPREAKVQWKVDNALQSGNSQESVTEQDSKDSTYSLSSTLTLSKADYEKHKVYACEVTHQGLSSPVTKSFNRGEC
notes: Human IgG1/kappa chimera; also called chG019 antibody; chimeric G019 antibody

- binding result [3]: binds
B2: anti-CDH6 antibody NOV0712 (antibody, V domains shown)
VH: QVQLLESGGGLVQPGGSLRLSCAASGFTFSSHGMHWVRQAPGKGLEWVSVISGSGSNTGYADSVKGRFTISRDNSKNTLYLQMNSLRAEDTAVYYCARQWGSYAFDSWGQGTLVTVSS
VL: DIQMTQSPSSLSASVGDRVTITCRASQSISSYLNWYQQKPGKAPKLLIYAVSTLQSGVPSRFSGSGSGTDFTLTISSLQPEDFATYYCQQSGTFPPTTFGQGTKVEIKR
notes: also called NOV0712 antibody; labeled NOV0712
- binding result [4]: no binding (tested: not given (single concentration))
